The values below are quoted from earlier work in PMC12368481, “Discovery of a Phenylalanine‐Derived Natural Compound as a Potential Dual Inhibitor of MDM2 and MDMX” (Chemmedchem, 2025).

pKd: −log10 of the molar value. Read-outs that look alike come from different tables or passages of the source.

In series [1] the target is p53 peptide (Homo sapiens) (UniProt P04637).
Series [2] has the same target. The source holds these as a separate data set.

Chain of p53 peptide (Homo sapiens) (P04637 whole entry): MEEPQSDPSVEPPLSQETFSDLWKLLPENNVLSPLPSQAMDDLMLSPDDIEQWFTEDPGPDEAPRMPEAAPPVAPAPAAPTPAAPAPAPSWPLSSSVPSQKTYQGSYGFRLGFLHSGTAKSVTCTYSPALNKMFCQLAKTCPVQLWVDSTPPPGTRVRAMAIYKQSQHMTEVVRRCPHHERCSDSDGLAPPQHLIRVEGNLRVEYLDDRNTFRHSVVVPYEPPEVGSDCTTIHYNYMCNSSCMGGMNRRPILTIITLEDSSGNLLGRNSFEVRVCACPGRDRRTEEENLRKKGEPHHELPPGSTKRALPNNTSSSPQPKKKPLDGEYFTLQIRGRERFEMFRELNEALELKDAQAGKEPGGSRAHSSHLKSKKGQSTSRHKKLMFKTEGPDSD
Chain of MDMX (O15151 whole entry): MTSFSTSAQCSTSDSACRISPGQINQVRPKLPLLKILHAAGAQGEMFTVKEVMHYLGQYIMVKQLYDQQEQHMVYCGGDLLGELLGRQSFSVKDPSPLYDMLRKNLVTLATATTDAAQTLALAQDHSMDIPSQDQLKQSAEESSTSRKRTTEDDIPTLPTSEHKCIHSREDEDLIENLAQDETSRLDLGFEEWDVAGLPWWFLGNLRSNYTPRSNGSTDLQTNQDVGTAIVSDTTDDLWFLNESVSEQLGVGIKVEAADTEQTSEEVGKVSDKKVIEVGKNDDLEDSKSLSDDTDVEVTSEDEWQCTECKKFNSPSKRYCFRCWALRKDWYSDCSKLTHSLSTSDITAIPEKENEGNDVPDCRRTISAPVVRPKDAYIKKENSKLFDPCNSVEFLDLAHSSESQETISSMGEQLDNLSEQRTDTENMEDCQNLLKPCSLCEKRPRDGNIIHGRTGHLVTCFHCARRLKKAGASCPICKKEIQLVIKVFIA
Chain of MDM2 (Q00987 whole entry): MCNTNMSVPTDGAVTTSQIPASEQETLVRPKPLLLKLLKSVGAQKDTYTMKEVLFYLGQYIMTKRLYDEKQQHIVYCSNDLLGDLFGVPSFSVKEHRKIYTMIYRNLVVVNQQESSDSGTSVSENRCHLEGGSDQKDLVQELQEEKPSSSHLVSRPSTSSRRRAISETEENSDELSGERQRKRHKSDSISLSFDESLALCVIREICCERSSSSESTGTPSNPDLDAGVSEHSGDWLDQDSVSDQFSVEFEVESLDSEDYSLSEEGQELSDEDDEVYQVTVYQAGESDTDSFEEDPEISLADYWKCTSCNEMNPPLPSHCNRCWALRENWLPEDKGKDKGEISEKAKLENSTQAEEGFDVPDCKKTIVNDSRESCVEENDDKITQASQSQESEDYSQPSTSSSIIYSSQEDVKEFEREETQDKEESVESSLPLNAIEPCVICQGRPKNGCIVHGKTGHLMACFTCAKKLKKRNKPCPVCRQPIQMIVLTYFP

As for MDM2 (from UniProt Q00987), in series [1], the pKd is 5.95.
For the substance MDMX (from UniProt O15151), the pKd in series [2] was 6.47.
